Test results as given in patent US20050055741, “Plant transcriptional repressor, proteic nuclear factors binding thereto, and uses thereof” (published 2005).

Key:
[1] = target: T1, SEBF (affinity purified, 29 and 28 kD bands) (Solanum tuberosum); experiment: southwestern; 29 and 28 kD bands each bind; settings: tags: none; label: 32P
T1 chain: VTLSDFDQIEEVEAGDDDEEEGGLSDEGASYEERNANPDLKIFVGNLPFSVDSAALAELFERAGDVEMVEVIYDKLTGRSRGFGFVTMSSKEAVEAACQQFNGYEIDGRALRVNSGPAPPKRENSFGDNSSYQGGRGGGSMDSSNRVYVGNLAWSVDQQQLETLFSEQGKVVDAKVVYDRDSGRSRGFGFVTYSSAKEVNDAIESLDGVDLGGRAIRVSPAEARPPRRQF
Protocol: FIG. 4 is a picture of a gel showing the purification of SEBF. Coomassie staining of proteins from each step of the purification of SEBF (lanes 1 through 4). The crude nuclear extract (Crude; lane 1) was loaded on a Q-Sepharose™ column. SEBF was eluted at 400 mM NaCl (Q-seph; lane 2) before two rounds of affinity purification (Aff.1, Aff.2; lane 3, lane 4). […] Arrows indicate the two purified bands. Molecular weight markers are indicated on the left.
Both of these proteins were subjected to N-terminal sequence analysis.

SEBF (recombinant) [2] = target: T2, SEBF (recombinant) (Solanum tuberosum); experiment: EMSA; 10 ng recombinant SEBF; settings: tags: GST fusion expressed in E. coli BL21; GST cleaved with thrombin; label: 32P
T2 chain: T1 chain
Source text: (§1) FIGS. 2A, 2B, 2C and 2D show mutational analysis of potato silencing element (SE). FIG. 2A: Schematic representation of the reporter constructs and mutant oligonucleotides used in this study. Reporter constructs contain the PR-10a promoter region from −135 to +136 fused to the bacterial gene uidA encoding […] (GUS). The position of the elicitor response element (ERE), the silencing element (SE) and the TATA box are shown (TATA). The transcriptional start site is indicated by an arrow. The common sequence between the wild-type (WT; SEQ ID NO:45) and mutant oligonucleotides m1 to m5 (SEQ ID NOs:1 to 5) is indicated by dashed lines, and mutated nucleotides are represented by lowercase letters. FIG. 2B: EMSA studies using 10 μg of crude potato tuber nuclear preparation and 20,000 CPM of the ³²P labeled single-stranded CS oligonucleotides presented in FIG. 2A. FIG. 2C: EMSA studies using 10 ng of purified recombinant SEBF and 20,000 CPM of the ³²P labeled single-stranded CS oligonucleotides presented in FIG. 2A. FIG. 2D: The sequence from −52 to −27 of the PR-10a promoter fused to the uidA gene was replaced by the sequences presented in FIG. 2A. The resulting plasmids were electroporated in potato leaf protoplasts and the GUS activity was measured. The histogram represents fold activity to wild type (WT=1). […]

SEBF (recombinant) [3] = target: T2, SEBF (recombinant); experiment: EMSA; specificity stated similar to native SEBF; settings: tags: GST fusion expressed in E. coli BL21; GST cleaved with thrombin; label: 32P
Source text: as §1

SEBF (recombinant) [4] = target: T2, SEBF (recombinant); experiment: EMSA; specificity similar to native SEBF; settings: tags: GST fusion expressed in E. coli BL21; GST cleaved with thrombin; label: 32P
Source text: as §1

TCTAGACTGTCACTTGTTTTTTTTA (ssDNA) [PR-10a SE coding strand WT]: binds [1]; binds (SEBF (recombinant) [2]).

CATGGACTGTCACTTGTTTTTTTTA (ssDNA) [SE m2]: binds (SEBF (recombinant) [3]).

TCTAGATCGAATTCCGCTCGACCGG (ssDNA) [SE m1]: no binding (SEBF (recombinant) [4]).
